This note sets out measurements from article PMC4883682, “STIM1 activation is regulated by a 14 amino acid sequence adjacent to the CRAC activation domain” (AIMS biophysics, 2016).

This data set deals with the molecule itself. The data set can be described thus: cross-linking; chemical crosslinking with dithiobis(succinymidyl propionate); constructs separately expressed; unstimulated state (Supplemental Figure S2).

B1: STIM1(del302-462)-mApple (natural protein, human, UniProt Q13586 23-685, looked up)
chain: LSHSHSEKATGTSSGANSEESTAAEFCRIDKPLCHSEDEKLSFEAVRNIHKLMDDDANGDVDVEESDEFLREDLNYHDPTVKHSTFHGEDKLISVEDLWKAWKSSEVYNWTVDEVVQWLITYVELPQYEETFRKLQLSGHAMPRLAVTNTTMTGTVLKMTDRSHRQKLQLKALDTVLFGPPLLTRHNHLKDFMLVVSIVIGVGGCWFAYIQNRYSKEHMKKMMKDLEGLHRAEQSLHDLQERLHKAQEEHRTVEVEKVHLEKKLRDEINLAKQEAQRLKSTRPNPAHFIMTDDVDDMDEEIVSPLSMQSPSLQSSVRQRLTEPQHGLGSQRDLTHSDSESSLHMSDRQRVAPKPPQMSRAADEALNAMTSNGSHRLIEGVHPGSLVEKLPDSPALAKKALLALNHGLDKAHSLMELSPSAPPGGSPHLDSSRSHSPSSPDPDTPSPVGDSRALQASRNTRIPHLAGKKAVAEEDNGSIGEETDSSPGRKKFPLKIFKKPLKK
notes: signal peptide in the construct; source: COS7 cells, transiently transfected (Lipofectamine 2000), in live cells; not shown: mApple, C-terminal, kept
As to B1, the “stoichiometry N” value worked out at 2.

B2: STIM1(del344-448)-mApple (natural protein, human, UniProt Q13586 23-685, looked up)
chain: LSHSHSEKATGTSSGANSEESTAAEFCRIDKPLCHSEDEKLSFEAVRNIHKLMDDDANGDVDVEESDEFLREDLNYHDPTVKHSTFHGEDKLISVEDLWKAWKSSEVYNWTVDEVVQWLITYVELPQYEETFRKLQLSGHAMPRLAVTNTTMTGTVLKMTDRSHRQKLQLKALDTVLFGPPLLTRHNHLKDFMLVVSIVIGVGGCWFAYIQNRYSKEHMKKMMKDLEGLHRAEQSLHDLQERLHKAQEEHRTVEVEKVHLEKKLRDEINLAKQEAQRLKELREGTENERSRQKYAEEELEQVREALRKAEKELESHSSWYASLVAALNIDPSWMGSTRPNPAHFIMTDDVDDMDEEIVSPLSMQSPSLQSSVRQRLTEPQHGLGSQRDLTHSDSESSLHMSDRQRVAPKPPQMSRAADEALNAMTSNGSHRLIEGVHPGSLVEKLPDSPALAKKALLALNHGLDKAHSLMELSPSAPPGGSPHLDSSRSHSPSSPDPDTPSPVGDSRALQASRNTRIPHLAGKKAVAEEDNGSIGEETDSSPGRKKFPLKIFKKPLKK
notes: as for B1
As to B2, the “stoichiometry N” value was 2.

A word on the stoichiometry N: it is a count of units in the complex or per binding partner.
